# Measured values published in publication doi:10.1101/2025.04.04.647159.
# Target: Candidatus Liberibacter asiaticus pyrophosphate-fructose-6-phosphate 1-phosphotransferase (Candidatus Liberibacter asiaticus)
# Assay: SEC
substance,measurement,value
Candidatus Liberibacter asiaticus pyrophosphate-fructose-6-phosphate 1-phosphotransferase (enzyme),stoichiometry N,4
